# Source: the supplement of paper PMC10724198
# ± gives the standard deviation of the averaged measurements.
# System: Saccharomyces cerevisiae
# Test: protein stability index of tFT-peptide fusion (C-terminal peptide) (PSI (0-1 scale)); higher = more stable (slower turnover)
# Settings: genetic background: wild type; temperature: 30 C
# 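Further: PSI is a weighted mean of sequencing reads over stability bins, variants kept only with over 10 reads, mCherry proximal and sfGFP distal, peptide attached via GGGS linker.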
row,Sequence,protein stability index
1,LGFFGGGRWAGG,0.717 ± 0.025
2,LLEGSFFCGNSS,0.726 ± 0.037
3,LPPPAPPSSFPP,0.661 ± 0.056
4,AGSLFEVECNGS,0.746 ± 0.038
5,GVSSGVSFVLGH,0.702 ± 0.0083
6,PPPTPTPPSQPT,0.681 ± 0.012
7,RPAPASAFPHSP,0.69 ± 0.045
8,GGLREPIYQLWV,0.648 ± 0.076
9,PPLSFDTSRVAP,0.677 ± 0.049
10,IGRSPRVLSATP,0.6534 ± 0.0059
11,SLSSPILYLFAS,0.65 ± 0.013
12,PPAPGPPHPPAL,0.651 ± 0.013
13,LRSPPPVSHRLP,0.822 ± 0.048
14,FNNTSFALRSQA,0.741 ± 0.029
15,CWAGKITAKIDV,0.666 ± 0.0085
16,LSPLSHPPSPAP,0.6806 ± 0.0014
17,SPSSLPPVPPSP,0.6764 ± 0.0036
18,KKNKKPKKQNNK,0.681 ± 0.063
19,HHAKWAHGTPAQ,0.681 ± 0.022
20,SPVRPPLSSLYS,0.705 ± 0.04
21,FGAIREVFYIRL,0.662 ± 0.018
22,LPGSVLLFPSFS,0.747 ± 0.035
23,IVVRPAGGGTQS,0.663 ± 0.019
24,HSTENGGCTREY,0.646 ± 0.039
25,LLSLMCYCWFGV,0.5088 ± 0.0011
26,PTAPLIPTGGAP,0.685 ± 0.029

row,Sequence,protein stability index
1,SEKKKKNKKNKK,0.714 ± 0.2
2,LFTGPPPSPPPP,0.699 ± 0.034
3,LFILSLGEYSLP,0.673 ± 0.066
4,GRETGGGKSRRK,0.687 ± 0.013
5,PLSAPNHVPGRT,0.702 ± 0.045
6,REDAKLGYGKKK,0.637 ± 0.061
7,GLFNIDLFRFVR,0.732 ± 0.041
8,KKAKRKHLLGRA,0.66 ± 0.017
9,TARIIAHPQTRI,0.661 ± 0.032
10,GHVRVVVRRRVI,0.5812 ± 0.0021
11,SPLPPPPHPSPF,0.505 ± 0.017
12,LWLLVAPGPPAQ,0.682 ± 0.027
13,FVLISSPLLRSF,0.623 ± 0.017
14,SPGRVSRGNASV,0.645 ± 0.017
15,VGAVRVAVGVGG,0.566 ± 0.0096
16,QTATIKGTLIAM,0.585 ± 0.0076
17,VGPSGLIRCSFC,0.712 ± 0.029
18,FAEWVRFWPGLV,0.6682 ± 0.0064
19,VAAASPLFSRID,0.712 ± 0.014
20,WGTSGAMRGTEG,0.683 ± 0.022
21,KVLTTISRAINK,0.604 ± 0.012
22,TPMGFSRFLLSL,0.553 ± 0.03
23,PIERISNSGKRP,0.6928 ± 0.0017
24,GGGAGLVGGCVA,0.735 ± 0.019
25,GKRKKRRKRRRT,0.664 ± 0.043
26,ENRGSGLQACGA,0.716 ± 0.1

row,Sequence,protein stability index
1,SDTPTHVLGPPY,0.716 ± 0.038
2,GSLVSKLGLGSG,0.69 ± 0.011
3,IDCCAGDSMAGI,0.703 ± 0.072
4,PALGLELYFVLV,0.519 ± 0.012
5,MICGCLWGSEGR,0.627 ± 0.11
6,LPPAPAPPQCST,0.675 ± 0.052
7,SFGLAPLSSFFC,0.705 ± 0.078
8,RVRGDRLGGRGT,0.706 ± 0.043
9,CHRSSPPPPPPT,0.711 ± 0.046
10,YFGGMGPRGRER,0.683 ± 0.016
11,KRKKKRKQKGKQ,0.722 ± 0.036
12,KGLKQLMQIRME,0.605 ± 0.064
13,DVVWRVVNDSDL,0.712 ± 0.051
14,PLVSLLPHPRAA,0.495 ± 0.094
15,DSSCLVWYRCGC,0.719 ± 0.083
16,VEWCARGRVRRA,0.757 ± 0.045
17,WEAPCGGTLVGR,0.697 ± 0.048
18,NWRAAGQSGPES,0.67 ± 0.012
19,CVAFLPISSFTS,0.76 ± 0.07
20,GGGCGGACRPVG,0.692 ± 0.14
21,ISGDGWNFVGIV,0.715 ± 0.097
22,HLFPSPPPSTLP,0.495 ± 0.045
23,YWAPYVWMFGFR,0.565 ± 0.0088
24,PLLPPSSVPTPS,0.784 ± 0.1
25,VIACTFLSCSFS,0.531 ± 0.02
26,LFSPTFPTIYYA,0.759 ± 0.059

row,Sequence,protein stability index
1,HTPTFPTSPPPP,0.68 ± 0.016
2,VPSGVWGVLGFA,0.667 ± 0.048
3,GFFRRNLGRVMD,0.608 ± 0.074
4,EERVEYHVALEV,0.664 ± 0.024
5,PPYPPETPPVHP,0.724 ± 0.037
6,SRVRSPPWTRKF,0.739 ± 0.1
7,EFLGRVPNTQDG,0.668 ± 0.078
8,KKKKQIKKTKKK,0.701 ± 0.047
9,PHPPHLRPLCPR,0.719 ± 0.029
10,NKRCRNITIQRA,0.73379 ± 0.00047
11,VSPNSFVGRPCF,0.717 ± 0.072
12,SPRGRGARRGRI,0.705 ± 0.028
13,HLLPRPIRPSTP,0.664 ± 0.074
14,APVRSSIALKSD,0.703 ± 0.035
15,KRLKKKKQSGGK,0.71 ± 0.03
16,PRSSSPPPRSPP,0.669 ± 0.016
17,PIGVFFVSGCVG,0.606 ± 0.014
18,GEEGQRGRGWRS,0.733 ± 0.039
19,LRVKVPLLGLWA,0.557 ± 0.025
20,STSPFPAPRRAL,0.775 ± 0.052
21,PRVPSSPNPPPI,0.805 ± 0.025
22,CTCGDFHRAWVS,0.667 ± 0.01
23,RPFATVLRTRAV,0.71 ± 0.0077
24,LLPSPSPASSPS,0.74 ± 0.1
25,VGRAGMPGSAES,0.66 ± 0.022
26,FVFSMDAFRSGL,0.665 ± 0.045

row,Sequence,protein stability index
1,PPPTPPRPPSPP,0.656 ± 0.015
2,STVPDRPRLPVY,0.674 ± 0.022
3,KCPRPDATLYQS,0.721 ± 0.042
4,SIVSTPGATACL,0.67281 ± 0.00029
5,ERVWRAALAPVV,0.618 ± 0.045
6,SFFFLVPFSVFL,0.586 ± 0.1
7,PGVRGVKPVGVS,0.675 ± 0.092
8,CLSHSIYYSFSF,0.691 ± 0.086
9,RPYLSPPPPTSP,0.687 ± 0.093
10,TRALPIVLAVGP,0.59 ± 0.026
11,WVPLGPFCLPLF,0.724 ± 0.1
12,PFHSLSATFPPR,0.768 ± 0.086
13,NGRNKKRKCLQT,0.706 ± 0.086
14,CPPRIVRPRGVK,0.6775 ± 0.0019
15,PPLASPDPPLPL,0.66 ± 0.083
16,VRDLGSPFIVYR,0.64 ± 0.059
17,PPPPPAPTTSVP,0.6829 ± 0.002
18,YPTQSPSPAPPT,0.644 ± 0.099
19,GGGGGECCFLEG,0.753 ± 0.081
20,PNLRPPSPPSLL,0.714 ± 0.049
21,GRCWAGAMGVVG,0.71 ± 0.015
22,GLTCKSTASCKV,0.693 ± 0.01
23,PTPLRILFALTP,0.611 ± 0.12
24,HFQASRLLCEGD,0.638 ± 0.026
25,HNRSFLIPFFPF,0.671 ± 0.085
26,FLSLAAPQSGGA,0.693 ± 0.027

row,Sequence,protein stability index
1,PPGGSRTEGRRT,0.688 ± 0.049
2,LLCIPFPTRSLI,0.803 ± 0.28
3,SSPPPCPLPTYP,0.624 ± 0.068
4,MQLPSHFEAWTS,0.781 ± 0.03
5,FSGRRGCFSSYI,0.653 ± 0.037
6,GVILPVVKARLA,0.472 ± 0.042
7,IVLAGVCGGVVG,0.733 ± 0.29
8,RDPTPPNPPPSR,0.763 ± 0.057
9,GEGNAIGQVVRN,0.681 ± 0.021
10,YDAGWVDVLLVI,0.6419 ± 0.0064
11,RFGPPPPPPSTL,0.71 ± 0.035
12,PRPQTSAHAETG,0.644 ± 0.022
13,QSRYASDLRNGL,0.699 ± 0.065
14,KKHKKEDNKEKK,0.708 ± 0.051
15,EADRAPSGGAGN,0.673 ± 0.013
16,RRGKIETKESKK,0.712 ± 0.044
17,PSPARLFVSPSP,0.649 ± 0.04
18,RGVGCLIITHSL,0.608 ± 0.073
19,PPYAPSPSPPSH,0.6936 ± 0.0029
20,TARQNRARPGHP,0.678 ± 0.022
21,CPDGSGWLARGC,0.661 ± 0.11
22,VLPHFSLSTPSP,0.7493 ± 0.0052
23,NAHHSASPSHCF,0.6471 ± 0.0059
24,PVPPGYFLRSPP,0.701 ± 0.032
25,WSLIARYSPCHF,0.67 ± 0.027
26,PSRPAHSPPVPP,0.646 ± 0.02

row,Sequence,protein stability index
1,LTSWYGNKLVAV,0.588 ± 0.029
2,PFPPLRSLPRPP,0.737 ± 0.099
3,ARSPSPLPSPPP,0.702 ± 0.018
4,GVEFKVVSFVVD,0.646 ± 0.094
5,GFCLGSLPQRLD,0.65 ± 0.019
6,AKWAWPAIVGGC,0.722 ± 0.053
7,DRDRVLLRGYRH,0.57134 ± 0.00013
8,LACVYEVIPGPS,0.677 ± 0.047
9,LCRSSIILTLLL,0.586 ± 0.057
10,FGSDQFVCRLWS,0.729 ± 0.048
11,EVRRGVGGAWEG,0.648 ± 0.011
12,GRGAKPYIKQVY,0.721 ± 0.034
13,RRMVRLDACASV,0.659 ± 0.041
14,GPPPPATPTPPR,0.767 ± 0.075
15,STCPPIFFVSSW,0.7248 ± 0.0063
16,TTYFLASSEWAG,0.7739 ± 0.003
17,KKKKKKKKKKPK,0.611 ± 0.022
18,GVVMMGERGGER,0.685 ± 0.049
19,MACCGVFISHKT,0.615 ± 0.026
20,RQQSIIDNQIGQ,0.6802 ± 0.0061
21,VFRSGGNQDIKV,0.648 ± 0.015
22,FPRPHPTPLPPG,0.689 ± 0.013
23,HLPPLPRPPSLT,0.7049 ± 0.0069
24,NKIRIIQVNLNR,0.699 ± 0.17
25,EGGKGGLVIVGG,0.709 ± 0.11
26,RAPMQPTATQAP,0.654 ± 0.035

row,Sequence,protein stability index
1,EGRTQTLPSRVT,0.638 ± 0.05
2,TRLVRQLNNNLE,0.667 ± 0.013
3,MLGLHSDTRRSR,0.673 ± 0.022
4,CVGFVVVGGVLG,0.667 ± 0.05
5,PPRPRVLPYPPL,0.746 ± 0.028
6,PLPFPLLPPPPH,0.705 ± 0.013
7,LITDSQWLSSLS,0.731 ± 0.02
8,SLVSYSPPLPPP,0.681 ± 0.034
9,KERKHKRTRQQT,0.666 ± 0.021
10,VGPRFAYLDVAA,0.5644 ± 0.0031
11,SIIATHNNNSIW,0.694 ± 0.014
12,VSGSVVLHTVIP,0.658 ± 0.017
13,HLRSALSVHPTL,0.707 ± 0.051
14,PISGFLRPPPPF,0.663 ± 0.012
15,SRWTFSFYRNLD,0.683 ± 0.053
16,PTTTRSKDKVQR,0.738 ± 0.041
17,PLHRARAPHSYP,0.7167 ± 0.006
18,PPPASRTPSNLP,0.732 ± 0.046
19,AVWNWEEVWLSG,0.654 ± 0.023
20,PTDAFFGLCMDC,0.68 ± 0.038
